Measured values published in US20170014503A1.

Experiments:
[1] = molecular target: KYNU mut
[2] = molecular target: KYNU wt
[3] = molecular target: SP62 (gp41 652-671)-GTH1 peptide anchored to liposomes (HIV-1); test: SPR, peptide anchored to phospholipid liposomes
[4] = molecular target: SP62-L669S (gp41 652-671)-GTH1 peptide anchored to liposomes (HIV-1); test: SPR, peptide anchored to phospholipid liposomes
[5] = molecular target: SP62 (gp41 652-671)-GTH1 peptide anchored to liposomes (HIV-1); test: BIAcore SPR on liposome-anchored peptide; encounter-docking model; forward rate of the docking step
[6] = molecular target: SP62-L669S (gp41 652-671)-GTH1 peptide anchored to liposomes (HIV-1); test: as above
[7] = molecular target: SP62 (gp41 652-671)-GTH1 peptide anchored to liposomes (HIV-1); test: BIAcore SPR on liposome-anchored peptide; encounter-docking model; reverse rate of the docking step
[8] = molecular target: SP62-L669S (gp41 652-671)-GTH1 peptide anchored to liposomes (HIV-1); test: as above
[9] = molecular target: SP62 (gp41 652-671)-GTH1 peptide anchored to liposomes (HIV-1); test: BIAcore SPR on liposome-anchored peptide; encounter-docking model; dissociation of the encounter step
[10] = molecular target: SP62-L669S (gp41 652-671)-GTH1 peptide anchored to liposomes (HIV-1); test: as above
[11] = molecular target: SP62 (gp41 652-671)-GTH1 peptide anchored to liposomes (HIV-1); test: BIAcore SPR on liposome-anchored peptide; encounter-docking model A + B <-> AB (encounter) <-> ABx (docked); association of the encounter step
[12] = molecular target: SP62-L669S (gp41 652-671)-GTH1 peptide anchored to liposomes (HIV-1); test: as above

2F5 mAb (antibody)
reactivity value in column 'KYNU mut' [1]: 0.465
reactivity value in column 'KYNU wt' [2]: 3.63
response unit at 10 seconds after the injection was stopped [3]: 495 RU
response unit (background subtracted) at 10 seconds after the injection was stopped [4]: 617 RU
ka2 [5]: 0.0181 s⁻¹
ka2 [6]: 0.0054 s⁻¹
kd2 [7]: 0.00037 s⁻¹
kd2 [8]: 2e-05 s⁻¹
kd1 [9]: 0.00692 s⁻¹
kd1 [10]: 0.00119 s⁻¹
ka1 [11]: 931000 M⁻¹ s⁻¹
ka1 [12]: 498000 M⁻¹ s⁻¹
